Test results: patent publication US9815881B2, “Method of inducing labor or treating pre-eclampsia by administering relaxin analogs” (The Board of Trustees of the Leland Stanford Junior …, priority 2009, dated 2017)
Each block holds one molecule with its values, some of them ahead of it. Where no end group is shown, it is not given here.

Columns and labels:
[1] = target: T1, LGR7 (Homo sapiens, UniProt Q9HBX9); test: Receptor-activation analysis: cAMP production in LGR7-expressing HEK293T cells; type: cell-based; conditions: for pEC50 on the activation of LGR7: HEK293T cells stably expressing LGR7, mean ± S.E., ND = pEC50 not measurable
T1 construct: HEK293T cells stably expressing recombinant LGR7 or LGR8; expressed in transfected cells
T1 sequence (Q9HBX9 1-757): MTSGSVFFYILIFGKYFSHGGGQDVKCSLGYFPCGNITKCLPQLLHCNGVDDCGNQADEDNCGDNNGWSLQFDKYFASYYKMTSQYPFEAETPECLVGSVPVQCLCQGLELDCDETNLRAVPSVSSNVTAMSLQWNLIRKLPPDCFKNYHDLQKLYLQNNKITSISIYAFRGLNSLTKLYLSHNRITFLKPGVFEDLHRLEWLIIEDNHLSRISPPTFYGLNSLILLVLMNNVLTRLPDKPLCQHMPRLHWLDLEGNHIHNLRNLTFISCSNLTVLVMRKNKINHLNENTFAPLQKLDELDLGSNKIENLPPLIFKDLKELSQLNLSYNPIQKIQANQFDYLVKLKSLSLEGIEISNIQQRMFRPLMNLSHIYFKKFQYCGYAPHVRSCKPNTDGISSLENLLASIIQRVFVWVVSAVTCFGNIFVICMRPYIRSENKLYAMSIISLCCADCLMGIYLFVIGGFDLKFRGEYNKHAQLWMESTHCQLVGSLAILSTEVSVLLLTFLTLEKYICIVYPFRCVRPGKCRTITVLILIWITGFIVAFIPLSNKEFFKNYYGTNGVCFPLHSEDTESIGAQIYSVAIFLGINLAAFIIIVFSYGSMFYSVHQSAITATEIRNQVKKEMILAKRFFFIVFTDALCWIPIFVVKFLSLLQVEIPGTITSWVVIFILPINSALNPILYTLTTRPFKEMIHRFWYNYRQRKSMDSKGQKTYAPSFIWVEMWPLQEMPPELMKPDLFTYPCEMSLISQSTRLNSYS
Description: (§1) The bioactivity of relaxin family peptides was determined based on the stimulation of adenylate cyclase activity in HEK293T cells stably expressing recombinant LGR7 or LGR8. Stable LGR7- or LGR8-expressing cells were maintained in Dulbecco's modified Eagle's medium/F-12 media supplemented with […] Zeocin (Invitrogen). After seeding at a density of 2×10^5 cells per well in 500 μl of Dulbecco's modified Eagle's medium/F-12 medium containing 0.1% bovine serum albumin in 48-well plates, cells were preincubated at 37° C. for 30 min in the presence of 0.25 mM 3-isobutyl-1-methylxanthine before treatment with increasing concentrations of peptides (from 0 to 100 nM) in quadruplicate. Twelve hours after treatment, the culture was reacted with acetic anhydride/triethylamine, and total cAMP content in cell lysates was measured using a specific cAMP radioimmunoassay. A nontagged human RLN2 peptide was used as a standard to verify the bioactivity of tagged RLN2 peptides.
(§2) Receptor-activation and receptor binding activity curves generated in nonlinear regression analyses (Prism; GraphPad Software, San Diego, Calif.) were evaluated relative to the samples without hormone treatment. In all cases data are reported as the mean±S.E. of assays in triplicate or quadruplicate. Statistically significant responses (p<0.05) were determined for each stimulated response to the average nonspecific response from control samples using analysis of variance and Student's t test.

[2] = target: T2, LGR8 (Homo sapiens, UniProt Q8WXD0); test: Receptor-activation analysis: cAMP production in LGR8-expressing HEK293T cells; type: cell-based; conditions: for LGR8-activation activity (result in words): LGR8-expressing HEK293T cells
T2 construct: HEK293T cells stably expressing recombinant LGR7 or LGR8; expressed in transfected cells
T2 sequence (Q8WXD0 whole entry): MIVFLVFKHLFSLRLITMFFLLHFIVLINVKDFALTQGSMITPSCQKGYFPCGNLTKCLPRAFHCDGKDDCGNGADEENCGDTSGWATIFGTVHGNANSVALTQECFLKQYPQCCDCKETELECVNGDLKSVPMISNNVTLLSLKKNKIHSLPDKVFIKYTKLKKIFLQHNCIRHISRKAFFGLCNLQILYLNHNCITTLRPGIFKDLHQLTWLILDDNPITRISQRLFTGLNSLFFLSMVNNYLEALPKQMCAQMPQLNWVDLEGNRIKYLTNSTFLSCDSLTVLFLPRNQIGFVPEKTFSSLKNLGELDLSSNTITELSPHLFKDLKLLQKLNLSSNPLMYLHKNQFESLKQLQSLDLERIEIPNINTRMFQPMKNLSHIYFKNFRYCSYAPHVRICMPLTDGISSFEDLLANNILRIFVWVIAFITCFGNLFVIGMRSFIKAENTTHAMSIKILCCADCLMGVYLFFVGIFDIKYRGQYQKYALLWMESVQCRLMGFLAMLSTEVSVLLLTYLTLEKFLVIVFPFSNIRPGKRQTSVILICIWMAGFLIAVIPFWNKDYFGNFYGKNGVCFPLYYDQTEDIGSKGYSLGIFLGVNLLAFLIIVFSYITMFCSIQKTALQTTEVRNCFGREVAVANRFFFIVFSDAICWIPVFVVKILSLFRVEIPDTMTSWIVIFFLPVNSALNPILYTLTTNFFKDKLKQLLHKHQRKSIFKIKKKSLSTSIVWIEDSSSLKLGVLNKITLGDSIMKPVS
Description: as §1, §2

pEC50 on the activation of LGR7 [1]: 8.74 ± 0.09
Molecule: RLN2 C-18: tagged RLN2 from construct with B and A chains linked by a truncated C-domain of 18 amino acids (chain 1 SWMEEVIKLCGRELVRAQIAICGMSTWSHHHHHH; chain 2 QLYSALANKCCHVGCTKRSLARFC; not fully specified; ends and bridges not checked)

pEC50 on the activation of LGR7 [1]: 8.66 ± 0.07
Molecule: RLN2 C-28: tagged RLN2 from construct with B and A chains linked by a truncated C-domain of 28 amino acids (chain 1 SWMEEVIKLCGRELVRAQIAICGMSTWSHHHHHH; chain 2 QLYSALANKCCHVGCTKRSLARFC; not fully specified; ends and bridges not checked)

pEC50 on the activation of LGR7 [1]: 8.74 ± 0.05
Molecule: RLN2 C-104: tagged RLN2 derived from the construct containing a 104-amino acid C domain sequence (chain 1 SWMEEVIKLCGRELVRAQIAICGMSTWSHHHHHH; chain 2 QLYSALANKCCHVGCTKRSLARFC; not fully specified; ends and bridges not checked)

Molecule: RLN2 K^A17D: RLN2 mutant with aspartic acid at the LysA17 position (chain 1 SWMEEVIKLCGRELVRAQIAICGMSTWSHHHHHH; chain 2 QLYSALANKCCHVGCTDRSLARFC; not fully specified; ends and bridges not checked)
LGR8-activation activity (result in words) [2]: did not exhibit an enhanced LGR8-activation activity

Molecule: RLN2 K^A17G: RLN2 mutant with glycine at the LysA17 position (chain 1 SWMEEVIKLCGRELVRAQIAICGMSTWSHHHHHH; chain 2 QLYSALANKCCHVGCTGRSLARFC; not fully specified; ends and bridges not checked)
LGR8-activation activity (result in words) [2]: did not exhibit an enhanced LGR8-activation activity

Molecule: RLN2 K^A17Q: RLN2 mutant with glutamine at the LysA17 position (chain 1 SWMEEVIKLCGRELVRAQIAICGMSTWSHHHHHH; chain 2 QLYSALANKCCHVGCTQRSLARFC; not fully specified; ends and bridges not checked)
LGR8-activation activity (result in words) [2]: did not exhibit an enhanced LGR8-activation activity

LGR7-activation activity (result in words) ([1]; LGR7-expressing HEK293T cells): decreased LGR7-activation activities
Molecule: RLN2^A19-20: RLN2 mutant with alanine substitution at the A19-20 positions of the A chain (chain 1 SWMEEVIKLCGRELVRAQIAICGMSTWSHHHHHH; chain 2 QLYSALANKCCHVGCTKRAAARFC; not fully specified; ends and bridges not checked)

pEC50 on the activation of LGR7 [1]: 8.66 ± 0.09
Molecule: WT RLN2 (His1): recombinant wild type RLN2 with N-terminal Myc tag and His6 tag at the N or C terminus of the B chain (position 1) (chain 1 SWMEEVIKLCGRELVRAQIAICGMSTWS; chain 2 QLYSALANKCCHVGCTKRSLARFC; not fully specified; ends and bridges not checked; also: N-terminal Myc tag)

pEC50 on the activation of LGR7 [1]: 8.77 ± 0.10
Molecule: WT RLN2 (His2): recombinant wild type RLN2 with N-terminal Myc tag and His6 tag at the N or C terminus of the B chain (position 2) (chain 1 SWMEEVIKLCGRELVRAQIAICGMSTWS; chain 2 QLYSALANKCCHVGCTKRSLARFC; not fully specified; ends and bridges not checked; also: N-terminal Myc tag)

pEC50 on the activation of LGR8 ([2]; HEK293T cells stably expressing LGR8, mean ± S.E., ND = pEC50 not measurable): 9.03 ± 0.05 | LGR8-activation activity (result in words) [2]: selectively activated
B1: WT INSL3: recombinant wild type human insulin-like 3 (protein)
chain 1: PTPEMREKLCGHHFVRALVRVCGGPRWSTEAHHHHHH
chain 2: AAATNPARYCCLSGCTQQDLLTLCPY
modifications: left off: small tags and cut ends
